Test results reported in article PMC3726423.
pKd: −log10 of the molar value.

Key:
[1] = test system: aCBF5; test: EMSA; settings: EMSA: 150 mM KCl, 1.5 mM MgCl2, 0.2 mM EDTA, 20 mM HEPES pH 7.9, 65 C 10 min, 50 fmol sRNA, 200 nM proteins (Kd: 50-400 nM aCBF5); fluorescence: 300 mM NaCl …
[2] = biological target: aNOP10 (P. abyssi) (UniProt Q9V0E3)
[3] = biological target: aNOP10 Y41A/Y44A (P. abyssi) (UniProt Q9V0E3)
[4] = biological target: aCBF5;aNOP10 Y41A/Y44A (Y);L7Ae (Pyrococcus abyssi;Pyrococcus abyssi) (UniProt P62008); test: EMSA; settings: radiolabeled substrate, excess unlabeled sRNP; EMSA: 150 mM KCl, 1.5 mM MgCl2, 0.2 mM EDTA, 20 mM HEPES pH 7.9, 65 C 10 min, 50 fmol sRNA, 200 nM proteins (Kd: 50-400 nM aCBF5); fluorescence: 300 mM NaCl …
[5] = biological target: aCBF5;aNOP10;L7Ae H70A/L74A/E77A (HLE) H65A;L69A;E72A (Pyrococcus abyssi;Pyrococcus abyssi) (UniProt P62008); test: EMSA; settings: radiolabeled substrate, excess unlabeled sRNP; EMSA: 150 mM KCl, 1.5 mM MgCl2, 0.2 mM EDTA, 20 mM HEPES pH 7.9, 65 C 10 min, 50 fmol sRNA, 200 nM proteins (Kd: 50-400 nM aCBF5); fluorescence: 300 mM NaCl …

Chain of aNOP10 (P. abyssi) (Q9V0E3 whole entry): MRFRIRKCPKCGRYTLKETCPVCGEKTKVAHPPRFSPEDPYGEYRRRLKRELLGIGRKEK
Chain of aNOP10 Y41A/Y44A (P. abyssi) (Q9V0E3 whole entry Y41A/Y44A): as the sequence (Q9V0E3 whole entry) above, with Y41A, Y44A counted along it

GGGGAUCCCCUCCCCUCCCGCCCUCUCCGGGGAAUCGUGAACCGGGGGUUCCGGGGGAGGGGACAGU [Pab21P191 chimera]
pKd [1]: 6.70

GGGGAUGGGCCCGGCUCCCGCCCUCUCCGGGGAAUCGUGAACCGGGGGUUCCGGCCGGGCCUACAGU [Pab21 H/ACA sRNA]
pKd [1]: 6.90

GGGUAAUGGGGCCCGGCUCUCACACCUCCGGGAUCAGUGACCGGAGGGCGGUCGCCGGGCCUACACCU [Pab91P121 chimera]
pKd [1]: 6.70

L7Ae (from UniProt P62008 1-123) (natural protein)
δ(Δε): decrease of the RNA CD signal at λmax on addition of L7Ae to the aCBF5-aNOP10-Pab21 complex (M^−1.cm^−1 per nt) [2]: -1.21 | δ(Δε): decrease of the RNA CD signal at λmax on addition of wild-type L7Ae to the aCBF5-aNOP10(Y41A/Y44A)-Pab21 complex (M^−1.cm^−1 per nt) [3]: -0.82

L7Ae triple mutant H70A/L74A/E77A (from UniProt P62008 1-123) (natural protein)
δ(Δε): decrease of the RNA CD signal at λmax on addition of L7Ae H70A/L74A/E77A to the wild-type aCBF5-aNOP10-Pab21 complex (M^−1.cm^−1 per nt) [2]: -0.825

Pab21 guide + substrate RNA
binding signal (fold decrease of CII') [4]: 2 | binding signal (fold decrease of CII') [5]: 2
